Laboratory results reported in paper PMC9482650, “Quantitative fragmentomics allow affinity mapping of interactomes” (Nature Communications, 2022).

T1: NHERF3_1, Q5T2W1
T1 sequence (Q5T2W1 4-100, limits assumed, looked up): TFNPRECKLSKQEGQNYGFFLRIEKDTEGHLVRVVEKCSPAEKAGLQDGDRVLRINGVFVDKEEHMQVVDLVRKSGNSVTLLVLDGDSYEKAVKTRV

T2: GRIP1_5, Q9Y3R0
T2 sequence (Q9Y3R0 568-668, limits assumed, looked up): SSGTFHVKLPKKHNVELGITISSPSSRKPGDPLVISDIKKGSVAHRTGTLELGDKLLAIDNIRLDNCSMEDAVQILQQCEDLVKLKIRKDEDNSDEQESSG

T3: MPP2, Q14168
T3 sequence (Q14168 180-250, limits assumed, looked up): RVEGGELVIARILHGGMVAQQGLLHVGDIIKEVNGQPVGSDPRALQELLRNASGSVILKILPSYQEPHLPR

T4: PTPN13_1, Q12923
T4 sequence (Q12923 1088-1188, limits assumed, looked up): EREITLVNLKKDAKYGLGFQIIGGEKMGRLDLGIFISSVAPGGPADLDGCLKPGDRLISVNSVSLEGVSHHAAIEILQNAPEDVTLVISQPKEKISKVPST

T5: LNX2_2, Q8N448
T5 sequence (Q8N448 334-432, limits assumed, looked up): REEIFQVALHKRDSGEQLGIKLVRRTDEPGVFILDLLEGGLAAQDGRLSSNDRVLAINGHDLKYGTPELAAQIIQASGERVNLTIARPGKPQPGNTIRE

T6: DLG3_3, Q92796
T6 sequence (Q92796 374-475, limits assumed, looked up): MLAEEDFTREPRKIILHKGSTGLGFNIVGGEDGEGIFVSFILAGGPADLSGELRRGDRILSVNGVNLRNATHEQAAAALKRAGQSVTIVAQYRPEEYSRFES

T7: LNX2_3, Q8N448
T7 sequence (Q8N448 463-564, limits assumed, looked up): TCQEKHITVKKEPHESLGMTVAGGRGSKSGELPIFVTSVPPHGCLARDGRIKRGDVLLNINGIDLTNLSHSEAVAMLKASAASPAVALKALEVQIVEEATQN

T8: DVL3, Q92997
T8 sequence (Q92997 244-331, limits assumed, looked up): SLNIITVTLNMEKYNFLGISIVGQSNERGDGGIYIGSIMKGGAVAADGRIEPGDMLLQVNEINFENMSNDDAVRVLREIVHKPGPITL

T9: LIN7C, Q9NUP9
T9 sequence (Q9NUP9 88-185, limits assumed, looked up): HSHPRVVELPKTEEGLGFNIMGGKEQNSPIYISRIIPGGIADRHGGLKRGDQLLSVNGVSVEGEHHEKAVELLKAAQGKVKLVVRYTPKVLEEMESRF

T10: GRIP1_7, Q9Y3R0
T10 sequence (Q9Y3R0 999-1096, limits assumed, looked up): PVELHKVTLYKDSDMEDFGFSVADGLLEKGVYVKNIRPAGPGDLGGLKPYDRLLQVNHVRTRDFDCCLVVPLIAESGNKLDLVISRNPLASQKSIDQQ

T11: DFNB31_2, Q9P202
T11 sequence (Q9P202 274-371, limits assumed, looked up): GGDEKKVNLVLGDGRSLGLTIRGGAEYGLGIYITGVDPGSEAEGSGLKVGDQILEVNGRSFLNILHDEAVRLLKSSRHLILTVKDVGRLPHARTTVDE

T12: DFNB31_3, Q9P202
T12 sequence (Q9P202 811-907, limits assumed, looked up): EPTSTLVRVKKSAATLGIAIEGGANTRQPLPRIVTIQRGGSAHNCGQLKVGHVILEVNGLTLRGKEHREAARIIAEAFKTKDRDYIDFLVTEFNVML


What was measured:
Experiment in all cases: holdup assay
Design in all cases: key: below the threshold = too weak to quantify, mostly under pKd 3.1 to 4
Conditions in all cases: plain residues with an end cap or a label only (N-terminal biotin on a linker: ado-ado)
[1] = molecular target: TJP2_1, Q9UDY2
[2] = molecular target: LIMK2, P53671
[3] = molecular target: T1, NHERF3_1, Q5T2W1
[4] = molecular target: T2, GRIP1_5, Q9Y3R0
[5] = molecular target: MAGI2_3, Q86UL8
[6] = molecular target: T3, MPP2, Q14168
[7] = molecular target: PTPN3, P26045
[8] = molecular target: T4, PTPN13_1, Q12923
[9] = molecular target: T5, LNX2_2, Q8N448
[10] = molecular target: T6, DLG3_3, Q92796
[11] = molecular target: MAGI1_2, Q96QZ7
[12] = molecular target: SCRIB_3, Q14160
[13] = molecular target: GRIP2_6, Q9C0E4
[14] = molecular target: SCRIB_2, Q14160
[15] = molecular target: T7, LNX2_3, Q8N448
[16] = molecular target: T8, DVL3, Q92997
[17] = molecular target: T9, LIN7C, Q9NUP9
[18] = molecular target: IL16_3, Q14005
[19] = molecular target: T10, GRIP1_7, Q9Y3R0
[20] = molecular target: Inadl_4, Q8NI35
[21] = molecular target: FRMPD3, Q5JV73
[22] = molecular target: DLG1_1, Q12959
[23] = molecular target: T11, DFNB31_2, Q9P202
[24] = molecular target: NHERF4_1, Q86UT5-2
[25] = molecular target: T12, DFNB31_3, Q9P202
[26] = molecular target: LNX1_1, Q8TBB1
Chain of LNX1_1, Q8TBB1 (Q8TBB1 261-371): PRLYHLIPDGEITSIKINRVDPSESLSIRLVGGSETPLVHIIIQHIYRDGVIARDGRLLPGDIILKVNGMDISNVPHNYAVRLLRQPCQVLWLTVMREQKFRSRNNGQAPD

Chain of Inadl_4, Q8NI35 (Q8NI35 547-651): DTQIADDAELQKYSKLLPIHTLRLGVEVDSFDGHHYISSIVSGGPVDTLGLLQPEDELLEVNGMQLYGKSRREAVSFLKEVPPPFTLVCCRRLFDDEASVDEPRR
Chain of NHERF4_1, Q86UT5-2 (Q86UT5 other isoform, or with tags, fused parts or gaps): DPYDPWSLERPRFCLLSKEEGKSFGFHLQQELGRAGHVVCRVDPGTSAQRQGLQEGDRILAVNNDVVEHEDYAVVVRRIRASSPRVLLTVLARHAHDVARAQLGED
Chain of GRIP2_6, Q9C0E4 (Q9C0E4 648-740): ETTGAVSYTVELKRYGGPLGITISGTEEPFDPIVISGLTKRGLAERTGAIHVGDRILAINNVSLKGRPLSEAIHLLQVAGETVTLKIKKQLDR
Chain of LIMK2, P53671 (P53671 143-248): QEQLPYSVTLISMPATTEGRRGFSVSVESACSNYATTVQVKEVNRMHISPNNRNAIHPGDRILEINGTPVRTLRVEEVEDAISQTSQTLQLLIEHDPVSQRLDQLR
Chain of PTPN3, P26045 (P26045 505-587): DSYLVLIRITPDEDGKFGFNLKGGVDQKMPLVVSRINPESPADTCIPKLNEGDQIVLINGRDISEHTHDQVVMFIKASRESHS
Chain of TJP2_1, Q9UDY2 (Q9UDY2 24-128): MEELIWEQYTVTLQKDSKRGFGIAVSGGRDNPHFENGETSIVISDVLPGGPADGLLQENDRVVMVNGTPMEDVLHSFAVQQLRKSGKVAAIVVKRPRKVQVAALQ
Chain of SCRIB_2, Q14160 (Q14160 857-960): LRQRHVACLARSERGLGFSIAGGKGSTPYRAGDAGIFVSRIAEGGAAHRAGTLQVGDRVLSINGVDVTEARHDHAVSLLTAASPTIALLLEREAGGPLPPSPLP
Chain of MAGI1_2, Q96QZ7 (Q96QZ7 456-580): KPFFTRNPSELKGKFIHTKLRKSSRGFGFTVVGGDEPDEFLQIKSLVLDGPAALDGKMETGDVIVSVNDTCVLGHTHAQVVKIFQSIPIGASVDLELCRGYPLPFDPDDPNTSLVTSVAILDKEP
Chain of IL16_3, Q14005 (Q14005 1107-1207): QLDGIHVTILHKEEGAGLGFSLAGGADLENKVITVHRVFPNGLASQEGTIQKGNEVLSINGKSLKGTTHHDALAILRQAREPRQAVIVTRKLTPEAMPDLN
Chain of FRMPD3, Q5JV73 (Q5JV73 12-100): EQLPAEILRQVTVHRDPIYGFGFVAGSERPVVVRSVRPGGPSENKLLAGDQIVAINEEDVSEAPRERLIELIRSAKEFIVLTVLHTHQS
Chain of SCRIB_3, Q14160 (Q14160 999-1103): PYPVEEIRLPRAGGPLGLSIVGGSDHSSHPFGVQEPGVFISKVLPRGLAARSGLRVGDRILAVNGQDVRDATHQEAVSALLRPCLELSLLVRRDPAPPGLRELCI
Chain of MAGI2_3, Q86UL8 (Q86UL8 600-682): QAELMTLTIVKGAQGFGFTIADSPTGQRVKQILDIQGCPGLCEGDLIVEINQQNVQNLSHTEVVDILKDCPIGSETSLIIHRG

Binder | pKd [1] | pKd [2] | pKd [3] | pKd [4] | pKd [5] | pKd [6] | pKd [7] | pKd [8] | pKd [9] | pKd [10] | pKd [11] | pKd [12] | pKd [13] | pKd [14] | pKd [15] | pKd [16] | pKd [17] | pKd [18] | pKd [19] | pKd [20] | further results
ARSAAASNYV [CLDN4, O14493] | 3.92 | below the threshold | 4.48 | below the threshold | below the threshold | below the threshold | below the threshold | below the threshold | 4.04 | below the threshold | below the threshold | below the threshold | below the threshold | below the threshold | below the threshold | 3.66 | 3.99 | below the threshold | below the threshold | below the threshold | pKd [21]: below the threshold; pKd [22]: below the threshold; pKd [23]: below the threshold; pKd [24]: 3.7; pKd [25]: below the threshold; pKd [26]: 3.57
QRPYRRGSEI [KCNJ18, B7U540] | below the threshold | below the threshold | below the threshold | below the threshold | below the threshold | below the threshold | 4.02 | below the threshold | below the threshold | below the threshold | below the threshold | 4.05 | below the threshold | 3.49 | below the threshold | below the threshold | 3.92 | below the threshold | below the threshold | below the threshold | pKd [21]: below the threshold; pKd [22]: below the threshold; pKd [23]: below the threshold; pKd [24]: below the threshold; pKd [25]: 3.83; pKd [26]: 3.83
